Results on one molecule are retold here after PMC12143593, “Selective engineering of condensation properties of single-stranded DNA binding (SSB) protein via its intrinsically disordered linker region”.

What all share (settings): protein: recombinant; tags: N-terminal His6-TEV, removed; chain copies: 4; label: fluorescein
Data set [1] has as its target EcSSB d1G (Escherichia coli, UniProt P0AGE0 1-113+121-178, internal_change). In words: fluorescence polarization; n = 2.2; 20 mM Tris-acetate pH 8, 50 mM K-glutamate, 10 mM Mg-acetate, 25 C; 10 nM labeled oligo, SSB concentrations as tetramers.
Data set [2] has as its target EcSSB d2G (Escherichia coli, UniProt P0AGE0 1-113+131-178, internal_change). In words: fluorescence polarization; n = 1.8; 20 mM Tris-acetate pH 8, 50 mM K-glutamate, 10 mM Mg-acetate, 25 C; 10 nM labeled oligo, SSB concentrations as tetramers.
Data set [3] deals with EcSSB R116D-W136D (Escherichia coli, UniProt P0AGE0 1-178, R116D;W136D). The description is as above.
Data set [4] has as its target EcSSB WT (Escherichia coli, UniProt P0AGE0 1-178). Description: fluorescence polarization; n = 1.7; 20 mM Tris-acetate pH 8, 50 mM K-glutamate, 10 mM Mg-acetate, 25 C; 10 nM labeled oligo, SSB concentrations as tetramers.
For data set [5], the target named is EcSSB W136D (Escherichia coli, UniProt P0AGE0 1-178, W136D). The data set is described as above.

B1: dT79 (ssDNA)
DNA: TTTTTTTTTTTTTTTTTTTTTTTTTTTTTTTTTTTTTTTTTTTTTTTTTTTTTTTTTTTTTTTTTTTTTTTTTTTTTTT
B1: the Kd in data set [1] was 11 ± 2.6 nM; in data set [2], 11 ± 2.5 nM; in data set [3], below 10 nM; in data set [4], below 10 nM; in data set [5], below 10 nM.
